Experimental data taken from patent US20230287120A1 (ALLOGENE THERAPEUTICS, published 2023).

T1: cynomolgus monkey DLL3 extracellular domain (ECD) with C-terminal 8xHis tag and Avi tag (cynomolgus monkey, UniProt A0A2K5WSR1 27-490)
T1 construct: extracellular domain; Expressed in Expi293, purified by IMAC and SEC; also called cynoDLL3; cyno DLL3; not shown: Avi tag
T1 sequence: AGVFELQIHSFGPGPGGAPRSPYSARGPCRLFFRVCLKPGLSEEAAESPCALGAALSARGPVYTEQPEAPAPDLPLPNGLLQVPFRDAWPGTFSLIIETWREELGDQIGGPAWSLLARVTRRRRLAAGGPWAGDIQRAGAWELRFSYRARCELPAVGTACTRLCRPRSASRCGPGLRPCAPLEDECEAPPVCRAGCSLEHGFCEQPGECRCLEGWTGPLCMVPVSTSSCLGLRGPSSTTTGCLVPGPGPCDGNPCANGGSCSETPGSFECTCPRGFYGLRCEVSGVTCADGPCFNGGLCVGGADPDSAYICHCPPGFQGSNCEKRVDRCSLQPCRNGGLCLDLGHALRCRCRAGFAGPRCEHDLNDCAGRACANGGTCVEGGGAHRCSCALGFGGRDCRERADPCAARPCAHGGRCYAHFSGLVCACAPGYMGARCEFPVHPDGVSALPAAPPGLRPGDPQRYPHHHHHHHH

T2: human DLL3 extracellular domain (ECD) with C-terminal 8xHis tag and Avi tag (human, UniProt Q9NYJ7 27-492)
T2 construct: extracellular domain; Expressed in Expi293, purified by IMAC and SEC; also called huDLL3; not shown: Avi tag
T2 sequence: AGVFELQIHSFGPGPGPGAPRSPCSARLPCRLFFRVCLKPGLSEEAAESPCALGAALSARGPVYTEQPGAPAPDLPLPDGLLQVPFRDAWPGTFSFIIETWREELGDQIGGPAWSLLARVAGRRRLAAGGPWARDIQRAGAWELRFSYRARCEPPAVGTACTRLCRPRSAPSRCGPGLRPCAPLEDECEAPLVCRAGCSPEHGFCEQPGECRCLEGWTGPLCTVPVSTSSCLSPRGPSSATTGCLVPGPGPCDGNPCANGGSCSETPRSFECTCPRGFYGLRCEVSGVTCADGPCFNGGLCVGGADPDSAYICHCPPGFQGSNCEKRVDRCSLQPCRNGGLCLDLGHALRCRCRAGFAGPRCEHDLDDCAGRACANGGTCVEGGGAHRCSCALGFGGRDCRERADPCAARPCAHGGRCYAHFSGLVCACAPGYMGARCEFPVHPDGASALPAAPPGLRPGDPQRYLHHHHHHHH

T3: mouse DLL3 extracellular domain (ECD) with C-terminal 8xHis tag and Avi tag (mouse, UniProt O88516 33-490)
T3 construct: extracellular domain; Expressed in Expi293, purified by IMAC and SEC; also called msDLL3; not shown: Avi tag
T3 sequence: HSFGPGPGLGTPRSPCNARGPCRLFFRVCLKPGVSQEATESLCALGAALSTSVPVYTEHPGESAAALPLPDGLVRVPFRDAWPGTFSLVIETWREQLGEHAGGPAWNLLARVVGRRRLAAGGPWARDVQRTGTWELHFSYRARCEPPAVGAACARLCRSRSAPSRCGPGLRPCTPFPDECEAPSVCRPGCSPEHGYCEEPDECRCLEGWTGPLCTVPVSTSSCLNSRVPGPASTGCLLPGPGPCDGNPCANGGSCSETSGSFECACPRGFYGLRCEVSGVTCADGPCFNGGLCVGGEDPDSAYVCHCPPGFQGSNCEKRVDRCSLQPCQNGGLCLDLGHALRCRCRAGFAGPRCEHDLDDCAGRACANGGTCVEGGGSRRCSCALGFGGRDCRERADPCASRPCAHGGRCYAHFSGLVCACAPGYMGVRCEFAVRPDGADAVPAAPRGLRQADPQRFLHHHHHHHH


Experiments:
[1] = molecular target: T1, cynomolgus monkey DLL3 extracellular …; test: SPR (Biacore), 37 C; scFv-Fc captured on chip, cyno DLL3 ECD in solution; 1:1 Langmuir fit
Protocol: (§1) The antibody binding kinetics were determined by surface plasmon resonance (Biacore™ surface plasmon resonance (SPR) system, GE Healthcare Bio-Sciences, Pittsburgh Pa.). The antibodies diluted in HBS-T+ running buffer (0.01 M HEPES pH 7.4, 0.15 M NaCl, 0.05% v/v Tween20, 1 mg/mL BSA) were captured on a CM4 chip immobilized with an antibody specific for the anti-DLL3 antibody constant domains. Purified DLL3 was serially diluted into HBS-T+, injected for 2 min at 30 uL/min and a dissociation time of 10 min then the surface regenerated with either 10 mM Glycine-HCl pH 1.7 or phosphoric acid between injections. […] Equilibrium dissociation constant (Kd) values are calculated as koff/kₒₙ.

[2] = molecular target: T2, human DLL3 extracellular domain (ECD) …; test: SPR (Biacore), 37 C; scFv-Fc captured on chip, human DLL3 ECD in solution; 1:1 Langmuir fit
Protocol: as §1

[3] = molecular target: T3, mouse DLL3 extracellular domain (ECD) …; test: SPR (Biacore), 37 C; scFv-Fc captured on chip, mouse DLL3 ECD in solution; 1:1 Langmuir fit
Protocol: as §1

Kd [1] [nM]	Kd [2] [nM]	Kd [3] [nM]	Binder
27	23.3	18.6	4H8 scFv-Fc fusion (Fc fusion, not shown: a dimerising Fc or GST, scFv-Fc expressed in Expi293) scFv: QVQLQQSGPGLVKPSQTLSLTCAISGDSVSSNSATWNWIRQSPSRGLEWLGRTYYRSKWYDDYAVSVKSRITINPDTSKNHLSLHLNSVTPEDTAVYYCAGGGLVGAPDGFDVWGQGTMVTVSSGGGGSGGGGSGGGGSGGGGSQSVLTQPPSASGTPGQRVTISCSGSSSNIGSDPVNWYQQLPGTAPKLLIYSNNQRPSGVPDRFSGSKSGTSASLAISGLQSEDEADYYCSAWDDSLNGYVFGTGTKVTVL
20.5	17.2	2.61	2G1 scFv-Fc fusion (Fc fusion, not shown: a dimerising Fc or GST, scFv-Fc expressed in Expi293) scFv: QLQLQESGPGLVKPSETLSLTCTVSGGSISSSSYYWGWIRQPPGKGLEWIGSIYYSGNIYHNPSLKSRVSISVDTSKNQFSLRLSSVTAADTAVYYCAREIIVGATHFDYWGQGTLVTVSSGGGGSGGGGSGGGGSGGGGSAIQMTQSPSSLSASVGDRVTITCRASQGIRNDLGWYQQKPGKAPELLIYAASSLQSGVPSRFSGSGSGTDFTLTISSLQPEDFATYYCLQDYNYPLTFGPGTKVDIK
< 0.97	3.82		17A2 scFv-Fc fusion (Fc fusion, not shown: a dimerising Fc or GST, scFv-Fc expressed in Expi293) scFv: QVQLQESGPGLVKPSGTLSLTCVVFGDSISSSNWWSWVRQPPGKGLEWIGEVFHSGSTNYNPSLKSRVTISVDKSKNQFSLKLSSVTAADTAVYYCARAAVAGALDYWGQGTLVTVSSGGGGSGGGGSGGGGSGGGGSDIVMTQSPDSLAVSLGERATINCKSSQSVLYSSNNKNYLAWYQQKPGQPPNLLVYWASTRESGVPDRFSGAGSGTDFTLTISSLQAEDVAVYYCQQYYGTSWTFGQGTKVEIK
	< 1.2	< 1.5	6D8 scFv-Fc fusion (Fc fusion, not shown: a dimerising Fc or GST, scFv-Fc expressed in Expi293) scFv: QITLKESGPTLVKPTQTLTLTCTFSGFSLSTRGVGVGWIRQPPGKALEWLALIYWNDDKRYSPSLQTRLTITKDTPKNQVVLTMTNMDPVDTATYYCARSNWGNWYFALWGRGTLVTVSSGGGGSGGGGSGGGGSGGGGSEIVLTQSPATLSLSPGERATLSCRASQSVSSYLAWYQQKPGQAPRLLIYDAFYRATGIPARFSGSGSGTDFTLTISSLEPEDFAVYYCQHRSNWPITFGQGTRLEIK
21.8	23.3	7.19	9D3 scFv-Fc fusion (Fc fusion, not shown: a dimerising Fc or GST, scFv-Fc expressed in Expi293) scFv: QVQLQESGPGLVKPSETLSLTCTVSDDSISNYYWSWIRQPPGKGLEWIGYIFYSGTTNHNPSLKSRLTISLDKAKNQFSLRLSSVTAADTAVYYCARVFNWGFAFDIWGQGTMVTVSSGGGGSGGGGSGGGGSGGGGSEIVLTQSPGTLSLSPGERATLSCRASQRISRTYLAWYQQKPGQAPRLLIYGASSRATGIPDRFTGSGSGTDFTLTISRLEPEDFAVYYCQQYGTSPLTFGGGTKVEIN
	40.8	19.3	6F8 scFv-Fc fusion (Fc fusion, not shown: a dimerising Fc or GST, scFv-Fc expressed in Expi293) scFv: QVQLVQSGAEVKKPGSSVKVSCKASGGTFTNYCISWVRQAPGQGLEWMGGIIPIFGTTNYAQTFQGRVTITADKSTSTAYMELSSLRSEDTAVYYCARDNGDRYYYDMDVWGQGTTVTVSSGGGGSGGGGSGGGGSGGGGSQSVLTQPPSVSAAPGQKVTISCSGSSSNIGNNYVSWYQQLPGTAPKLLIYDNNKRPSGIPDRFSGSKSGTSATLGITGLQTGDEADYYCGTWDSSLSAVVFGGGTKLTVL
6.81	8.18		3F2 scFv-Fc fusion (Fc fusion, not shown: a dimerising Fc or GST, scFv-Fc expressed in Expi293) scFv: QVQLQESGPGLVKPSGTLSLTCAVSGGSISSNNWWSWVRQPPGKGLEWIGDIHHSGSTNYKPSLKSRVTISVDKSKNQFSLNLISVTAADTAVYYCAREAGGYFDYWGQGILVTVSSGGGGSGGGGSGGGGSGGGGSDIQMTQSPSTLSASVGDRVTITCRASQSISSWLAWYQQKPGKAPKLLISKASSLESGVPSRFSGSGSGPEFTLTISSLQPADFATYYCQQYNSYSTFGQGTKLEIK
10.5	11.2	7.03	8E11 scFv-Fc fusion (Fc fusion, not shown: a dimerising Fc or GST, scFv-Fc expressed in Expi293) scFv: QVQLQESGPGLVKPSETLSLTCTVSGDSISNYYWTWIRQPPGKGLEWIGYIYYSGTTNSNPSLKSRVTVSLDTSKSQFSLNLSSVTAADTAVYYCARVFNRGFAFDIWGQGTMVTVSSGGGGSGGGGSGGGGSGGGGSEIVLTQSPGTLSLSPGERATLSCRASQRISNTYLAWYQQKPGQAPRLLIYGASSRATGIPDRFSGSGSGTDFTLTISRLEPEDFAAYYCQQYDTSPLTFGGGTKVEIK
4.51	5.53	3.05	26C8 scFv-Fc fusion (Fc fusion, not shown: a dimerising Fc or GST, scFv-Fc expressed in Expi293) scFv: QVQLQESGPGLVKPSETLSLTCTVSDNSISNYYWSWIRQPPGKGLEWIAYIYYSGTTNYNPSLKSRVTISLDTSKNQFSLQLSSVTAADAAVYYCARVFHWGFAFDIWGQGTMVTVSSGGGGSGGGGSGGGGSGGGGSEIVLTQSPGTLSLSPGERATLSCRASQRVSNTYLAWYQQNPGQAPRLLIYGASSRATGIPDRFSGSGSGTDFTLTISRLEPEDFAVYYCQQYGTSPLTFGGGTKVEIK
28.8	26.3	27.7	10G1-K scFv-Fc fusion (Fc fusion, not shown: a dimerising Fc or GST, scFv-Fc expressed in Expi293) scFv: EVQLLESGGGLVQPGGSLRLSCAASGFTFSSYAMNWVRQAPGKGLEWVSTISGSGGSTYYADSVKGRFTISRDNSKNTLYLQMNSLRAEDTAVFYCAIDPEYYDILTGGDYWGQGTLVTVSSGGGGSGGGGSGGGGSGGGGSDIQMTQSPSAMSASVGDRVTITCRASQGISNYLAWFQQKPGKVPKRLIYAASSLQSGVPSRFSGSGSGTEFTLTISSLQPEDFATYFCLQHDSFPLTFGGGTKVEIK
	186		9H12-K scFv-Fc fusion (Fc fusion, not shown: a dimerising Fc or GST, scFv-Fc expressed in Expi293) scFv: QVQLVQSGAEVKKPGASVKVSCKASGYTFTGYSIHWVRQAPGQGLEWMGWINPNSGGTFYAQKFQGRVTMTRDTSISTVYMELSRLRSDDTAVYYCARDGWGDYYYYGLDVWGQGTTVTVSLGGGGSGGGGSGGGGSGGGGSDIQMTQSPSSVSASVGDRVTITCRASQDISSWLAWYQQKPGKAPKLLIYTASSLQGGVPSRFSGSGSGTDFTLTISSLQPEDLATYSCQQANVFPYTFGQGTKLEIK
46.8	48.4	42.1	2A6.C5 scFv-Fc fusion (Fc fusion, not shown: a dimerising Fc or GST, scFv-Fc expressed in Expi293) scFv: QVQLQESGPGLVKPSETLSLTCTVSNVSISSYYWSWIRQPPGKGLEWIGYIYYSGTTNYNPSLKSRVTMSVDTSKNQFSLKLSSVTAADTAVYFCARLSNWGFAFDIWGQGTMVTFSSGGGGSGGGGSGGGGSGGGGSEIVLTQSPGTLSLSPGERATLSCRASQTISSSYLAWYQQKPGQAPRLLIYGASSRATGIPDRFSGSGSGTEFTLTISRLEPEDFAVYYCQQYGWSPITFGQGTRLEIK
	27.3		7F9 scFv-Fc fusion (Fc fusion, not shown: a dimerising Fc or GST, scFv-Fc expressed in Expi293) scFv: EVQLVESGGGLVQPGGSLRLSCAASGFTFSSHDMHWVRQATGKGLEWVSAIGIAGDTYYSGSVKGRFTISRENAKNSLYLQMNSLRAGDTAVYYCARANWGEGAFDIWGQGTMVTVSSGGGGSGGGGSGGGGSGGGGSDIQMTQSPSSLSASVGDRVTITCRASQGISDYLAWYQQKPGKIPKLLIYAASTLQSGVPSRFSGSGSGTDFTLTISSLQPEDVATYYCQKYNSVPLTFGGGTKVEIK
